Assay results published in PMC12824264 (2025).

Columns and labels:
ALK1-Fc [1] = biological target: T1, ALK1-Fc (UniProt P37023 22-118); experiment: SPR
ALK1-Fc [2] = biological target: T1, ALK1-Fc; experiment: SPR; remark: listed apart in the source

koff (ALK1-Fc [1]) [s⁻¹] | Kd (ALK1-Fc [2]) [nM] | Binder
0.000236 | 0.422 | sENG(D):BMP9 complex (complex) chain 1: ETVHCDLQPVGPERGEVTYTTSQVSKGCVAQAPNAILEVHVLFLEFPTGPSQLELTLQASKQNGTWPREVLLVLSVNSSVFLHLQALGIPLHLAYNSSLVTFQEPPGVNTTELPSFPKTQILEWAAERGPITSAAELNDPQSILLRLGQAQGSLSFCMLEASQDMGRTLEWRPRTPALVRGCHLEGVAGHKEAHILRVLPGHSAGPRTVTVKVELSCAPGDLDAVLILQGPPYVSWLIDANHNMQIWTTGEYSFKIFPEKNIRGFKLPDTPQGLLGEARMLNASIVASFVELPLASIVSLHASSCGGRLQTSPAPIQTTPPKDTCSPELLMSLIQTKCADDAMTLVLKKELVAHLKCTITGLTFWDPSCEAEDRGDKFVLRSAYSSCGMQVSASMISNEAVVNILSSSSPQRKKVHCLNMDSLSFQLGLYLSPHFLQASNTIEPGQQSFVQVRVSPSVSEFLLQLDSCHLDLGPEGGTVELIQGRAAKGNCVSLLSPSPEGDPRFSFLLHFYTVPIPKTGTLSCTVALRPKTGSQDQEVHRTVFMRLNIISPDLSGCTSKG chain 2: SAGAGSHCQKTSLRVNFEDIGWDSWIIAPKEYEAYECKGGCFFPLADDVTPTKHAIVQTLVHLKFPTKVGKACCVPTKLSPISVLYKDDMGVPTLKYHYEGMSVAECGCR
0.000329 | 2.97 | sENG(D):BMP10 complex (complex) chain 1: ETVHCDLQPVGPERGEVTYTTSQVSKGCVAQAPNAILEVHVLFLEFPTGPSQLELTLQASKQNGTWPREVLLVLSVNSSVFLHLQALGIPLHLAYNSSLVTFQEPPGVNTTELPSFPKTQILEWAAERGPITSAAELNDPQSILLRLGQAQGSLSFCMLEASQDMGRTLEWRPRTPALVRGCHLEGVAGHKEAHILRVLPGHSAGPRTVTVKVELSCAPGDLDAVLILQGPPYVSWLIDANHNMQIWTTGEYSFKIFPEKNIRGFKLPDTPQGLLGEARMLNASIVASFVELPLASIVSLHASSCGGRLQTSPAPIQTTPPKDTCSPELLMSLIQTKCADDAMTLVLKKELVAHLKCTITGLTFWDPSCEAEDRGDKFVLRSAYSSCGMQVSASMISNEAVVNILSSSSPQRKKVHCLNMDSLSFQLGLYLSPHFLQASNTIEPGQQSFVQVRVSPSVSEFLLQLDSCHLDLGPEGGTVELIQGRAAKGNCVSLLSPSPEGDPRFSFLLHFYTVPIPKTGTLSCTVALRPKTGSQDQEVHRTVFMRLNIISPDLSGCTSKG chain 2: NAKGNYCKRTPLYIDFKEIGWDSWIIAPPGYEAYECRGVCNYPLAEHLTPTKHAIIQALVHLKNSQKASKACCVPTKLEPISILYLDKGVVTYKFKYEGMAVSECGCR
0.00017 | 1.68 | sENG(M):BMP10 complex (complex) chain 1: ETVHCDLQPVGPERGEVTYTTSQVSKGCVAQAPNAILEVHVLFLEFPTGPSQLELTLQASKQNGTWPREVLLVLSVNSSVFLHLQALGIPLHLAYNSSLVTFQEPPGVNTTELPSFPKTQILEWAAERGPITSAAELNDPQSILLRLGQAQGSLSFCMLEASQDMGRTLEWRPRTPALVRGCHLEGVAGHKEAHILRVLPGHSAGPRTVTVKVELSCAPGDLDAVLILQGPPYVSWLIDANHNMQIWTTGEYSFKIFPEKNIRGFKLPDTPQGLLGEARMLNASIVASFVELPLASIVSLHASSCGGRLQTSPAPIQTTPPKDTCSPELLMSLIQTKCADDAMTLVLKKELVAHLKCTITGLTFWDPSCEAEDRGDKFVLRSAYSSCGMQVSASMISNEAVVNILSSSSPQRKKVHCLNMDSLSFQLGLYLSPHFLQASNTIEPGQQSFVQVRVSPSVSEFLLQLDSCHLDLGPEGGTVELIQGRAAKGNCVSLLSPSPEGDPRFSFLLHFYTVPIPKTGTLSCTVALRPKTGSQDQEVHRTVFMRLNIISPDLSGCTSKG chain 2: NAKGNYCKRTPLYIDFKEIGWDSWIIAPPGYEAYECRGVCNYPLAEHLTPTKHAIIQALVHLKNSQKASKACCVPTKLEPISILYLDKGVVTYKFKYEGMAVSECGCR
0.000124 | 0.179 | sENG(M):BMP9 complex (complex) chain 1: ETVHCDLQPVGPERGEVTYTTSQVSKGCVAQAPNAILEVHVLFLEFPTGPSQLELTLQASKQNGTWPREVLLVLSVNSSVFLHLQALGIPLHLAYNSSLVTFQEPPGVNTTELPSFPKTQILEWAAERGPITSAAELNDPQSILLRLGQAQGSLSFCMLEASQDMGRTLEWRPRTPALVRGCHLEGVAGHKEAHILRVLPGHSAGPRTVTVKVELSCAPGDLDAVLILQGPPYVSWLIDANHNMQIWTTGEYSFKIFPEKNIRGFKLPDTPQGLLGEARMLNASIVASFVELPLASIVSLHASSCGGRLQTSPAPIQTTPPKDTCSPELLMSLIQTKCADDAMTLVLKKELVAHLKCTITGLTFWDPSCEAEDRGDKFVLRSAYSSCGMQVSASMISNEAVVNILSSSSPQRKKVHCLNMDSLSFQLGLYLSPHFLQASNTIEPGQQSFVQVRVSPSVSEFLLQLDSCHLDLGPEGGTVELIQGRAAKGNCVSLLSPSPEGDPRFSFLLHFYTVPIPKTGTLSCTVALRPKTGSQDQEVHRTVFMRLNIISPDLSGCTSKG chain 2: SAGAGSHCQKTSLRVNFEDIGWDSWIIAPKEYEAYECKGGCFFPLADDVTPTKHAIVQTLVHLKFPTKVGKACCVPTKLSPISVLYKDDMGVPTLKYHYEGMSVAECGCR
0.000162 |  | BMP9 growth factor domain (GFD) dimer (ligand) SAGAGSHCQKTSLRVNFEDIGWDSWIIAPKEYEAYECKGGCFFPLADDVTPTKHAIVQTLVHLKFPTKVGKACCVPTKLSPISVLYKDDMGVPTLKYHYEGMSVAECGCR
0.000169 |  | BMP10 growth factor domain (GFD) dimer (ligand) NAKGNYCKRTPLYIDFKEIGWDSWIIAPPGYEAYECRGVCNYPLAEHLTPTKHAIIQALVHLKNSQKASKACCVPTKLEPISILYLDKGVVTYKFKYEGMAVSECGCR
